# Assay results as given in paper PMC9792452.
# T1: Interferon regulatory factor 3 (human (endogenous in A375)), Q14653
# T1 chain: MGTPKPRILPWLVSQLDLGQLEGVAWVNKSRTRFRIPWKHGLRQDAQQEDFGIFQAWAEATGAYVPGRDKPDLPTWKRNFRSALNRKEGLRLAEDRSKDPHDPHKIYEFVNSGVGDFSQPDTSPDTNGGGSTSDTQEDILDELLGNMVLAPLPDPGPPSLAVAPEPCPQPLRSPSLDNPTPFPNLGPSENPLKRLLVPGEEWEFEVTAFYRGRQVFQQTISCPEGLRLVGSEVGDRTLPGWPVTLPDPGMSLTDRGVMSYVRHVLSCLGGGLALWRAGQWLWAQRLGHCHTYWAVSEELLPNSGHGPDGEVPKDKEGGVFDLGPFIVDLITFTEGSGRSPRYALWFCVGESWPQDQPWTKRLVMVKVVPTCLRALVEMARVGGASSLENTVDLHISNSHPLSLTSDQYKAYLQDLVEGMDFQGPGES
# B1: Interferon regulatory factor 3, Q14653 1-427 (natural protein)
# chain: T1 chain
# Target: T1, Interferon regulatory factor 3 (human …)
# Test: cross-linking; covalent cross-link formed in cells (TG2-dependent), seen by Western blot of SDS-polyacrylamide gels under denaturing conditions; A375 cells treated with doxorubicin 5 μM for 6, 16 and 24 h; HeLa cells too
# Details: remark: other sources report otherwise
binder,measurement,value
B1,stoichiometry N,2
